Laboratory results as given in US20240270821A1, “GIP/GLP1/GCG TRI-RECEPTOR AGONISTS AND USES THEREOF” (priority 2023, published 2024).
Changes are numbered by the printed parent chain.

T1: human GIP receptor (human) (UniProt P48546)
T1 sequence (looked up): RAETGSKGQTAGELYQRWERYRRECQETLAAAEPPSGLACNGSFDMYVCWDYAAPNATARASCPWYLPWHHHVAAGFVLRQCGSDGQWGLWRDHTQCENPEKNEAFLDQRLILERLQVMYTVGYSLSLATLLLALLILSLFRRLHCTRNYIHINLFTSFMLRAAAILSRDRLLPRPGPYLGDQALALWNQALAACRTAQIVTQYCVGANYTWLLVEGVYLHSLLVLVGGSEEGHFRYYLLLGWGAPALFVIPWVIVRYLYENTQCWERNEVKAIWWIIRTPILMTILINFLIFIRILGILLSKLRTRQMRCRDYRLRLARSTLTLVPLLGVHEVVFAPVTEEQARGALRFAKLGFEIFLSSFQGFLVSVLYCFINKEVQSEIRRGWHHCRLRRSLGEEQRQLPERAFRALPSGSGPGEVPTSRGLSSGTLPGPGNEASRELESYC

B1: Example 421 (peptide)
chain: YXQGTXTSDYSIXLDKKAQXAFIEYLEEGGPSSGAPPPS
modifications: synthetic construct; SITE 2: note = 2-Aminoisobutyric Acid; SITE 6: note = alpha-methyl-2-fluoro-L-phenylalanine; SITE 13: note = alpha-methyl-leucine; SITE 17: note = Lysine is chemically modified through conjugation of the epsilon-amino group of the Lysine side chain with (2-[2-(2-Amino-ethoxy)-et)
B2: Example 423 (peptide)
chain: B1 chain with P37E
modifications: synthetic construct; SITE 2: note = 2-Aminoisobutyric Acid; SITE 6: note = alpha-methyl-2-fluoro-L-phenylalanine; SITE 13: note = alpha-methyl-leucine; SITE 17: note = Lysine is chemically modified through conjugation of the epsilon-amino group of the Lysine side chain with (2-[2-(2-Amino-ethoxy)-et)
B3: Example 424 (peptide)
chain: YXQGTXTSDYSIXLDKKAQXAFIEYLEEGGPSSGAPPPSE
modifications: synthetic construct; SITE 2: note = 2-Aminoisobutyric Acid; SITE 6: note = alpha-methyl-2-fluoro-L-phenylalanine; SITE 13: note = alpha-methyl-leucine; SITE 17: note = Lysine is chemically modified through conjugation of the epsilon-amino group of the Lysine side chain with (2-[2-(2-Amino-ethoxy)-et)
B4: Example 425 (peptide)
chain: B1 chain with Y1H, X13L
modifications: not fully specified; synthetic construct; SITE 2: note = 2-Aminoisobutyric Acid; SITE 6: note = alpha-methyl-2-fluoro-L-phenylalanine; SITE 17: note = Lysine is chemically modified through conjugation of the epsilon-amino group of the Lysine side chain with (2-[2-(2-Amino-ethoxy)-ethoxy]-acetyl)-(gamma-Glu)-CO-(CH2) 16-
B5: Example 426 (peptide)
chain: B1 chain with Y1H, X13L
modifications: synthetic construct; SITE 2: note = 2-Aminoisobutyric Acid; SITE 6: note = alpha-methyl-2-fluoro-L-phenylalanine; SITE 17: note = Lysine is chemically modified through conjugation of the epsilon-amino group of the Lysine side chain with (gamma-Glu)2-CO-(CH2)16-CO2H; SITE 20: note = 2-Aminoisobutyric
B6: Example 427 (peptide)
chain: B1 chain with X13L, K16X, E27L
modifications: synthetic construct; SITE 2: note = 2-Aminoisobutyric Acid; SITE 6: note = alpha-methyl-2-fluoro-L-phenylalanine; SITE 16: note = L-ornithine; SITE 17: note = Lysine is chemically modified through conjugation of the epsilon-amino group of the Lysine side chain with (2-[2-(2-Amino-ethoxy)-ethoxy]-ace)
B7: Example 428 (peptide)
chain: B1 chain with X13L, K16X, E27L
modifications: synthetic construct; SITE 2: note = 2-Aminoisobutyric Acid; SITE 6: note = alpha-methyl-2-fluoro-L-phenylalanine; SITE 16: note = L-ornithine; SITE 17: note = Lysine is chemically modified through conjugation of the epsilon-amino group of the Lysine side chain with (gamma-Glu)2-CO-(CH2)16-CO2H; SITE
B8: Example 39 (peptide)
chain: YXQGTFTSDFSKXLDKKAQXAFIQWLLEGGPSSGAPPPSEG
modifications: Lys acylated; non-natural residues; C-amide; synthetic construct; SITE 2: note = 2-Aminoisobutyric Acid; SITE 13: note = alpha-methyl-leucine; SITE 17: note = Lysine is chemically modified through conjugation of the epsilon-amino group of the Lysine side chain with (2-[2-(2-Amino-ethoxy)-ethoxy]-acetyl)-(gamma-Glu)-CO-(CH2) 18-CO2H; SITE 20: n
B9: Example 429 (peptide)
chain: YXQGTXTSDXXIXLDXKAQXXFIEXLIEGGPSSGAPEPSEG
modifications: synthetic construct; SITE 2: note = 2-Aminoisobutyric Acid; SITE 6: note = alpha-methyl-2-fluoro-L-phenylalanine; SITE 10: note = 3-(4-Pyridyl)-L-alanine; SITE 11: note = alpha-methyl-L-serine; SITE 13: note = alpha-methyl-leucine; SITE 16: note = L-ornithine; SITE 17: note = Lysine is chemically mo
B10: Example 430 (peptide)
chain: B1 chain with X13L, K17I, E24K
modifications: not fully specified; synthetic construct; SITE 2: note = 2-Aminoisobutyric Acid; SITE 6: note = alpha-methyl-2-fluoro-L-phenylalanine; SITE 20: note = 2-Aminoisobutyric Acid; SITE 24: note = Lysine is chemically modified through conjugation of the epsilon-amino group of the Lysine side chain with (2-[2-(2-Amino-ethoxy)-
B11: Example 431 (peptide)
chain: YXQGTXTSDYSIXLDKKAQXAFIEYLEEGGPSSGAPPPSEG
modifications: synthetic construct; SITE 2: note = 2-Aminoisobutyric Acid; SITE 6: note = alpha-methyl-2-fluoro-L-phenylalanine; SITE 13: note = alpha-methyl-leucine; SITE 17: note = Lysine is chemically modified through conjugation of the epsilon-amino group of the Lysine side chain with (2-[2-(2-Amino-ethoxy)-et)
B12: Example 433 (peptide)
chain: B3 chain with X13L
modifications: synthetic construct; SITE 2: note = 2-Aminoisobutyric Acid; SITE 6: note = alpha-methyl-2-fluoro-L-phenylalanine; SITE 17: note = Lysine is chemically modified through conjugation of the epsilon-amino group of the Lysine side chain with (gamma-Glu)2-CO-(CH2)16-CO2H; SITE 20: note = 2-Aminoisobutyric
B13: Example 434 (peptide)
chain: B11 chain with X13L
modifications: synthetic construct; SITE 2: note = 2-Aminoisobutyric Acid; SITE 6: note = alpha-methyl-2-fluoro-L-phenylalanine; SITE 17: note = Lysine is chemically modified through conjugation of the epsilon-amino group of the Lysine side chain with (gamma-Glu)2-CO-(CH2)16-CO2H; SITE 20: note = 2-Aminoisobutyric

target: human glucagon receptor (human) (UniProt P47871); assay: cell-based or functional assay
Sequence (P47871 26-477): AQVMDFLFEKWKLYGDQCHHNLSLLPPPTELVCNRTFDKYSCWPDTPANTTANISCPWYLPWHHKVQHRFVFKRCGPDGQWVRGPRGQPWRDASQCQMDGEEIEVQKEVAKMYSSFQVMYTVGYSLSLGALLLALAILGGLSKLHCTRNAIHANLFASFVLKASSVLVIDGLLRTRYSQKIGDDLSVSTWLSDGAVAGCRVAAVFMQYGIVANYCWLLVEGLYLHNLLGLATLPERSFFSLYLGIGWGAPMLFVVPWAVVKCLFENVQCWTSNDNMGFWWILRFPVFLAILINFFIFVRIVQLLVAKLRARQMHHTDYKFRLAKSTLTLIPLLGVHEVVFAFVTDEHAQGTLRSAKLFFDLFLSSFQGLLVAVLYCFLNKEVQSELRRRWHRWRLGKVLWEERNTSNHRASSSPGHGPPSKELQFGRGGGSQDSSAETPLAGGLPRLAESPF

Row | Binder | Relative cAMP EC50 | cAMP Rel EC50, nM (1% HSA) | cAMP Rel EC50 (in the presence of 1% HSA)
1 | B1 | 3.25 nM | 468 nM | 
2 | B2 | 1.92 nM | 319 nM | 
3 | B3 | 3.12 nM | 443 nM | 
4 | B4 | 5.49 nM | 1150 nM | 
5 | B5 | 4.33 nM | 740 nM | 
6 | B6 | 3.81 nM | 1440 nM | 
7 | B7 | 2.35 nM | 536 nM | 
8 | B8 | 10.1 nM |  | 1090 nM
9 | B9 | 1.19 nM | 138 nM | 
10 | B10 | 2.11 nM | 559 nM | 
11 | B11 | 3.32 nM | 352 nM | 
12 | B12 | 5.78 nM | 532 nM | 
13 | B13 | 2.84 nM | 525 nM | 

target: T1, human GIP receptor (human); assay: cell-based or functional assay

Row | Binder | Relative cAMP EC50 | cAMP Rel EC50, nM (1% HSA) | cAMP Rel EC50 (in the presence of 1% HSA)
14 | B1 | 0.0132 nM | 2.98 nM | 
15 | B2 | 0.0114 nM | 3.07 nM | 
16 | B3 | 0.0154 nM | 3.21 nM | 
17 | B4 | 0.0997 nM | 46.9 nM | 
18 | B5 | 0.079 nM | 29.8 nM | 
19 | B6 | 0.0121 nM | 4.25 nM | 
20 | B7 | 0.01 nM | 4.55 nM | 
21 | B8 | 0.299 nM |  | 30.5 nM
22 | B9 | 0.0142 nM | 1.89 nM | 
23 | B10 | 0.0144 nM | 4.65 nM | 
24 | B11 | 0.0157 nM | 3.73 nM | 
25 | B12 | 0.0206 nM | 15.3 nM | 
26 | B13 | 0.0226 nM | 10.6 nM | 

target: hGLP-1R (Homo sapiens, UniProt P43220); assay: cell-based or functional assay
Sequence (P43220 24-463): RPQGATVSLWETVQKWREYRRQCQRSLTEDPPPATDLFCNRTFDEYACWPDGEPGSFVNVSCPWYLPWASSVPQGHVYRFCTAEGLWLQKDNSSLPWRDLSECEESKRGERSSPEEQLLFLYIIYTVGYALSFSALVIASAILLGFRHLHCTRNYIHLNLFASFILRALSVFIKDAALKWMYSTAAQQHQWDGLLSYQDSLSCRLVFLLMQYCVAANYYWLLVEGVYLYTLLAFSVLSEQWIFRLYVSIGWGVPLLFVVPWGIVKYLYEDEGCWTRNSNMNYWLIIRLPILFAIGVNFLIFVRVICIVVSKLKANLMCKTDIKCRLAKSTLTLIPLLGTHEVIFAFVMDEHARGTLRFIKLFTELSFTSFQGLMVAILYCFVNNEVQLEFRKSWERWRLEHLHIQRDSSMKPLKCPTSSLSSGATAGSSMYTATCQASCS

Row | Binder | Relative cAMP EC50 | cAMP Rel EC50, nM (1% HSA) | cAMP Rel EC50 (in the presence of 1% HSA)
27 | B1 | 0.21 nM | 31.9 nM | 
28 | B2 | 0.194 nM | 28.7 nM | 
29 | B3 | 0.318 nM | 29.5 nM | 
30 | B4 | 0.15 nM | 20.3 nM | 
31 | B5 | 0.139 nM | 16.6 nM | 
32 | B6 | 0.282 nM | 42.9 nM | 
33 | B7 | 0.207 nM | 38.2 nM | 
34 | B8 | 2.13 nM |  | 260 nM
35 | B9 | 0.178 nM | 12.1 nM | 
36 | B10 | 0.438 nM | 78.9 nM | 
37 | B11 | 0.392 nM | 35.2 nM | 
38 | B12 | 0.273 nM | 43.4 nM | 
39 | B13 | 0.236 nM | 35 nM | 
